Drawing on US9176064B2, “Bisubstrate fluorescent probes for protein kinase CK2” (University of Tartu, priority 2012, dated 2015), this text covers remaining activity for one compound.

What all share (assay): Kinase panel residual activity
What all share (type): biochemical
Common to all, as to conditions: compound at 1 micromolar

Data set [1] has as its target BRK (Homo sapiens, UniProt Q13882).
Data set [2] has as its target T1, SGK1 (Homo sapiens, UniProt O00141).
T1 sequence (O00141 1-431): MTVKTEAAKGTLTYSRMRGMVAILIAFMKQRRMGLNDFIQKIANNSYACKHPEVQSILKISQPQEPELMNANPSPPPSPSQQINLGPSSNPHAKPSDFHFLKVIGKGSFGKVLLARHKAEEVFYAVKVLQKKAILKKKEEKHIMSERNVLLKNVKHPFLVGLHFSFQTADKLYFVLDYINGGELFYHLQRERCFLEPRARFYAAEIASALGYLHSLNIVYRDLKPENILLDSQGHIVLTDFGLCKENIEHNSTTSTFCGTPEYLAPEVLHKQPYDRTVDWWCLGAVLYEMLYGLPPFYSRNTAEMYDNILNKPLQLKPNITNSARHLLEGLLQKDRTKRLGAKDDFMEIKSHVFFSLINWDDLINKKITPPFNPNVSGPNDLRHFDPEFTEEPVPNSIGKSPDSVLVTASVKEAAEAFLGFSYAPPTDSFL

For data set [3], the target named is MAP4K5 (Homo sapiens, UniProt Q9Y4K4).
Sequence of MAP4K5 (Q9Y4K4 whole entry, species assumed): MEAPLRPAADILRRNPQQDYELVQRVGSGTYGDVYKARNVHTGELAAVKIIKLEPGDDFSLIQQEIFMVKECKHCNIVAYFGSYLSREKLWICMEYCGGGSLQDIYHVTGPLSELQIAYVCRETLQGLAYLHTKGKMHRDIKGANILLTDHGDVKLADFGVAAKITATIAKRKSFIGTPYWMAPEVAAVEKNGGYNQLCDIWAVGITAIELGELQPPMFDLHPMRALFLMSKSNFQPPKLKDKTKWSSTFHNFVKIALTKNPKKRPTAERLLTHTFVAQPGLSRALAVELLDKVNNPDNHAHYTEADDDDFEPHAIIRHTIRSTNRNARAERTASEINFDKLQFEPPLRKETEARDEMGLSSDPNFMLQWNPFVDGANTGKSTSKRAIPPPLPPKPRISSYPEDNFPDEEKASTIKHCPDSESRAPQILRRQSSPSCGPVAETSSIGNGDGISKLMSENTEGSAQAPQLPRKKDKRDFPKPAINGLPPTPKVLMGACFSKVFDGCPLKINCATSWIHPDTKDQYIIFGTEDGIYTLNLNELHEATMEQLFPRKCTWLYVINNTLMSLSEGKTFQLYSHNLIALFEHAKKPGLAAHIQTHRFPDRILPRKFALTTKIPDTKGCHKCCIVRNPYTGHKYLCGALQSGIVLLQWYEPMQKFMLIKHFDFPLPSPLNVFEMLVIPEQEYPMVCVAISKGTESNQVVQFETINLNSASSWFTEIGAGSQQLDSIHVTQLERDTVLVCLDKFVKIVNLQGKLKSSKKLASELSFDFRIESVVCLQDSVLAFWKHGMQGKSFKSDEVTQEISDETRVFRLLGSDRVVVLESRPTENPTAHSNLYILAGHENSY
In data set [4] the target is PKA (Homo sapiens, UniProt P17612).
For data set [5], the target named is DYRK1A (Homo sapiens, UniProt Q13627).
Data set [6] concerns the target T2, ZAP70 (Homo sapiens, UniProt P43403).
T2 sequence (P43403 1-619): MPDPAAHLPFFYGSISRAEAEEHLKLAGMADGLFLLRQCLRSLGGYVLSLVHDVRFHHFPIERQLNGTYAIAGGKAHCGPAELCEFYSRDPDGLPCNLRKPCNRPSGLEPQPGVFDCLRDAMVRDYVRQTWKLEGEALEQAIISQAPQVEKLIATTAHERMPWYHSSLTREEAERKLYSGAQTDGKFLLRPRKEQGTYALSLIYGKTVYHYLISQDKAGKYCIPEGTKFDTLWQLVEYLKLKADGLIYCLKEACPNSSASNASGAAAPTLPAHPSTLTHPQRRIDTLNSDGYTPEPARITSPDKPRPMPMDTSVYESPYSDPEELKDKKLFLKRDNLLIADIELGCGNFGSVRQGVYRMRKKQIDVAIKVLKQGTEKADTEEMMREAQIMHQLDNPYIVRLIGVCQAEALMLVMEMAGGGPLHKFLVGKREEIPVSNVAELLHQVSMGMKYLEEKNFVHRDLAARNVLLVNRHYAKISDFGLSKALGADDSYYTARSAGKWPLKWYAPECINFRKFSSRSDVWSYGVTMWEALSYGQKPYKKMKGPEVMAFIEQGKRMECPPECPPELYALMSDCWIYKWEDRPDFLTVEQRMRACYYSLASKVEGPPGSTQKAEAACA

For data set [7], the target named is MINK1 (Homo sapiens, UniProt Q8N4C8).
Sequence of MINK1 (Q8N4C8 whole entry, species assumed): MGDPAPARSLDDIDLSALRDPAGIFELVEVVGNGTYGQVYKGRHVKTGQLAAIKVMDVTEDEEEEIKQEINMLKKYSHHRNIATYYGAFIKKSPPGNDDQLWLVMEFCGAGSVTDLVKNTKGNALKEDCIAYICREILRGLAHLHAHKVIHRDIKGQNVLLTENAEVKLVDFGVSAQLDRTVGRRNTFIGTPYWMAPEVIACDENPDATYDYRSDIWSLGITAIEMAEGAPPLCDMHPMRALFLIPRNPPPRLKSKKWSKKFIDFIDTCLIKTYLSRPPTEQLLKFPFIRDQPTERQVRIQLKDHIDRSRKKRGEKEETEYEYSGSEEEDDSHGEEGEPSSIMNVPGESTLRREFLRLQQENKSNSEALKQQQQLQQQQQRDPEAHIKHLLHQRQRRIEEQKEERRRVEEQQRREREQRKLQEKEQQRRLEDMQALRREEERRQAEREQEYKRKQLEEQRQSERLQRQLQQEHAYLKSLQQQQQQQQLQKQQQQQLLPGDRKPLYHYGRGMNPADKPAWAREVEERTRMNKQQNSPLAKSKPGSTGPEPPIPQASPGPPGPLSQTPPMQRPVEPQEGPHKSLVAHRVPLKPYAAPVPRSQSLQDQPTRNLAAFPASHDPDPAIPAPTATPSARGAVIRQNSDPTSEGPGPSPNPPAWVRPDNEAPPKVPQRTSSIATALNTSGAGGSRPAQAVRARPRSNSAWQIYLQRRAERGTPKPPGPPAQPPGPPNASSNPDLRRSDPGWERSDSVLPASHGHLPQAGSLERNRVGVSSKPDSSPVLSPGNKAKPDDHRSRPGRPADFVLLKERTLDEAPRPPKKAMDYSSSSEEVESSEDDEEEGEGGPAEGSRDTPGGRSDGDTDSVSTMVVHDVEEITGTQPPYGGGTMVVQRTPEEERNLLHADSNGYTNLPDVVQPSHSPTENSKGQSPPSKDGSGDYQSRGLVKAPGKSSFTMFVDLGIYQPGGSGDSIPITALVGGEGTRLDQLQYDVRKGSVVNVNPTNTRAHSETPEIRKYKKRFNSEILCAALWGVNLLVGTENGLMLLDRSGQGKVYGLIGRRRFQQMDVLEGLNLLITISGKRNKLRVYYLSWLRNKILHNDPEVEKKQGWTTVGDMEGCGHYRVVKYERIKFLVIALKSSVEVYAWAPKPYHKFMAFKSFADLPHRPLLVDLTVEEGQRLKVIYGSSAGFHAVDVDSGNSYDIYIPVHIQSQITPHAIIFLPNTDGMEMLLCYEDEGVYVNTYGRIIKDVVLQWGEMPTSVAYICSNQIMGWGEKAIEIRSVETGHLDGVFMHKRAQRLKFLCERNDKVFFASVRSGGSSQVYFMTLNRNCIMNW
In data set [8] the target is PKBa (Homo sapiens, UniProt P31749).
Sequence of PKBa (P31749 whole entry): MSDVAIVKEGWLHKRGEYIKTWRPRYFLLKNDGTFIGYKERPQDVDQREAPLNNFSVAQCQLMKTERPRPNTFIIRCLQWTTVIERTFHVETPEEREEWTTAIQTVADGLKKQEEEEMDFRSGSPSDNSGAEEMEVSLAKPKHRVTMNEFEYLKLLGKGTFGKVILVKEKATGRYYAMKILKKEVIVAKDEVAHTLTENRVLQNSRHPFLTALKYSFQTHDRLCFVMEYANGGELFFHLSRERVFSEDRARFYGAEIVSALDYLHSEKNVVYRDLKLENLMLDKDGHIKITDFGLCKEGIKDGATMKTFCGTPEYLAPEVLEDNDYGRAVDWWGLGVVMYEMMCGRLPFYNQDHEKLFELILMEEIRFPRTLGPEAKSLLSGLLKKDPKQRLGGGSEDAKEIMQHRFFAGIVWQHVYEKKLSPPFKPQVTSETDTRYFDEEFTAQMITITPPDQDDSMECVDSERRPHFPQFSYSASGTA
Data set [9] concerns the target T3, EPH-B2 (Homo sapiens, UniProt P29323).
T3 sequence (P29323 19-1055): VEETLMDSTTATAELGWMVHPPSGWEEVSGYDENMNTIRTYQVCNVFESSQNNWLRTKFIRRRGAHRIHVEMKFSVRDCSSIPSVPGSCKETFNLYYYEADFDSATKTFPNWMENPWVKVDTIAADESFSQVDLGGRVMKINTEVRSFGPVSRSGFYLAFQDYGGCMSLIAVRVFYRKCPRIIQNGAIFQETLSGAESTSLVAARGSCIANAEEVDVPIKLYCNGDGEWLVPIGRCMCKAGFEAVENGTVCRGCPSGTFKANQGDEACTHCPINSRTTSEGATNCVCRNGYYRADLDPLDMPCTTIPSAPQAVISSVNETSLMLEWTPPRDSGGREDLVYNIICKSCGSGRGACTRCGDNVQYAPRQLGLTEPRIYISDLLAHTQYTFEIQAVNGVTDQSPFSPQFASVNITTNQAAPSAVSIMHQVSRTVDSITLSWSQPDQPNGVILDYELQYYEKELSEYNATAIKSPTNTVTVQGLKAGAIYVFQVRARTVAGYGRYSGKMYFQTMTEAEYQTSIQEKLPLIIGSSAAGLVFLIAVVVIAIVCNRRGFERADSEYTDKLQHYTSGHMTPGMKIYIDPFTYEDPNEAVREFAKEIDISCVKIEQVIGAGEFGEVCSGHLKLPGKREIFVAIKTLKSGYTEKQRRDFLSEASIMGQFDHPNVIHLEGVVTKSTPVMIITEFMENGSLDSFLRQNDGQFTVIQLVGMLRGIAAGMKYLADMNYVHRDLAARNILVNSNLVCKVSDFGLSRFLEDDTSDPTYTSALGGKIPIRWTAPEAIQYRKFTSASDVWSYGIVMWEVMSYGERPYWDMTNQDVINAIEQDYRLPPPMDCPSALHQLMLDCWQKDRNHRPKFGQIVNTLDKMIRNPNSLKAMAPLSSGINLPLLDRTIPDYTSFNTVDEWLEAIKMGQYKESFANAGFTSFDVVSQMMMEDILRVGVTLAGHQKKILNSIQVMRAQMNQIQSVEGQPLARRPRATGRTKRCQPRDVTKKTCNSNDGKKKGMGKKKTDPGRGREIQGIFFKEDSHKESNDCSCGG

Data set [10] deals with CSK (Homo sapiens, UniProt P41240).
Sequence of CSK (P41240 whole entry, species assumed): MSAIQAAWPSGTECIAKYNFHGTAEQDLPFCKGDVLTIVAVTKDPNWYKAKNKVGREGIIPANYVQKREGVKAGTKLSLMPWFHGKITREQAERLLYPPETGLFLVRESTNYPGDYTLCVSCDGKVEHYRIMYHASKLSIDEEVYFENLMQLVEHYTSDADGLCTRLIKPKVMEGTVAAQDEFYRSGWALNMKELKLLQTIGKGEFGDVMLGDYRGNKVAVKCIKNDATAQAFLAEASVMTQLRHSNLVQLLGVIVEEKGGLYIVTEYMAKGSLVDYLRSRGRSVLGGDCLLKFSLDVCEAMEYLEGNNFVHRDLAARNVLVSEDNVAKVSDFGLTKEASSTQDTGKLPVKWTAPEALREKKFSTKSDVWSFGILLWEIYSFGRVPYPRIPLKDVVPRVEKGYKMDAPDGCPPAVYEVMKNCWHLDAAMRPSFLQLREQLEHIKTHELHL

Where a SMILES comes first, the peptide text is derived from it. [ ]: non-standard residue; d: D form. The star is where a group is joined. X1 = O=C(CCCCCCCn1cnc2c(Br)c(Br)c(Br)c(Br)c21)*

Sequence of BRK (Q13882 whole entry, species assumed): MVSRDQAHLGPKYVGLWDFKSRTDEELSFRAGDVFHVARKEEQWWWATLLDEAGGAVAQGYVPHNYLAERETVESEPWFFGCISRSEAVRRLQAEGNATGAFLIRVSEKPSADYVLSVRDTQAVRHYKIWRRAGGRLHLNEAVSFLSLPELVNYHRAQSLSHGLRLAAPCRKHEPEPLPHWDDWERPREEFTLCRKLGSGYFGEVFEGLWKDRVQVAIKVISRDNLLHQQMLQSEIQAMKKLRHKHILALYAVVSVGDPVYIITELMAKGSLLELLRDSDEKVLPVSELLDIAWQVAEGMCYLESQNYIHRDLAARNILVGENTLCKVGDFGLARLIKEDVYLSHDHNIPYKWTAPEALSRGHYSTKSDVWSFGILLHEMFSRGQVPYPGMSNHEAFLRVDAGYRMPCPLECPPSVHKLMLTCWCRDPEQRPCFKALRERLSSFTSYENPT

In general, remaining activity refers to the signal under treatment as a percentage of the control signal. On to `NCCCC[C@H](NC(=O)[C@H](CC(=O)O)NC(=O)[C@H](CC(=O)O)NC(=O)[C@H](CC(=O)O)NC(=O)[C@H](CC(=O)O)NC(=O)[C@H](CC(=O)O)NC(=O)[C@@H](CC(=O)O)NC(=O)CCCCCCCn1cnc2c(Br)c(Br)c(Br)c(Br)c21)C(=O)O` [TBBI-OcA-(D-Asp)-(L-Asp)5-(L-Lys)-OH] (X1-[dD]DDDDDK-OH), for which the remaining activity at 1 µM in data set [1] worked out at 113%; in data set [2], 127%; in data set [3], 132%; in data set [4], 100%; in data set [5], 36%; in [6], 97%. In addition, the remaining activity at 1 µM in data set [7] is 139%; in [8] it was 73%; in data set [9] it was 113%; in data set [10] it was 92%.
